Where two headings read alike, the source gives them in different places.
How the values were obtained:
E. coli wild-type LacY = E. coli wild-type LacY (Escherichia coli, UniProt P02920); conditions: cited from earlier work
[1] = test system: LNT-producing E. coli strain; test: Lacto-N-tetraose production in lab scale fermentation (3 litre); format: cell-based
Protocol: The identity of lacto-N-tetraose being produced was determined by multiple reaction monitoring (MRM) using an LC triple-quadrupole MS detection system (Shimadzu LCMS-8050). Precursor ions were selected and analyzed in quadrupole 1, followed by collision-induced fragmentation (CID) with argon and selection of fragment ions in quadrupole 3.
The oligosaccharide LNT in particle-free culture supernatants or cytoplasmic fractions were separated by high performance liquid chromatography (HPLC) using a Waters XBridge Amide HPLC column (3.5 μm, 2.1 […] 50 mm) for both neutral or acidic sugars. Neutral sugars were eluted with isocratic flow of H2O with 0.1% (v/v) ammonium hydroxide. The HPLC system encompasses a Shimadzu Nexera X2 SIL-30ACMP autosampler run at 8° C., a Shimadzu LC-20AD pump, and a Shimadzu CTO-20AC column oven running at 35° C. for elution of neutral sugars and was adjusted to 50° C. for elution of acidic sugars. For the analysis of LNT 1 μl was injected into the instrument. Flow rate was set 0.3 mL/min corresponding to a run time of 5 min. LNT was analyzed in negative ion mode. The mass spectrometer was operated at unit resolution. Collision energy, Q1 and Q3 pre-bias were optimized for each analyte. Quantification methods were established using commercially available standards (Carbosynth and Elicityl).
The impact of reduced lactose import and reduced lactose sensitivity by a bacterial strain on its oligosaccharide production was analyzed in a small-scale fermentation.
In a first set of fermentations each of the bacterial strains was inoculated from a preculture in a fermentation broth containing 20 mM lactose.
In these cultures, the lactose feed (2.5 ml/L/h) was started at the end of the batch phase.

lactose permease genes = test: Expression analysis of lactose permease genes by qPCR; format: cell-based, E. coli BL21(DE3); conditions: normalized to gapA, compared with parental strain, FIG. 3
Protocol: A metabolically engineering derivative of E. coli BL21(DE3) which was capable of producing lacto-N-tetraose (LNT) was obtained by genetic engineering.
For expression analyses individual clones obtained from above-referenced mutagenesis approach were inoculated in 25 ml mineral salts medium in shaking flasks. Expression analysis of each clone was performed in 3 replicates. The bacterial cells were grown at 30° C. and a relative humidity of 80% with constant agitation at 120 rpm. After 20 h of culturing, the optical densities of these precultures were determined and the main cultures were seeded to an OD600 of 0.05 in 25 ml of mineral salts medium. The main cultures were cultured for 20 h under the same conditions as the pre-cultures were cultured. Then the bacterial cells were harvested by centrifugation and used for extraction of RNA and subsequent expression analysis by qPCR. The relative quantification of expression levels was performed using the comparative Δ cycle threshold method, the calculated relative expression values were normalized to gapA and compared with the expression level in the parental strain used as control.

[2] = test system: bacterial LNT production strains; test: Lactose sensitivity of bacterial LNT production strains (OD600 in shaking flasks); format: cell-based, E. coli BL21(DE3); conditions: 20 hours after addition, compared to growth in the absence of lactose
Protocol: The culture medium used to grow the cells for the production of the desired oligosaccharide contained: 3 g/L KH2PO4, 12 g/L K2HPO4, 5 g/L (NH4)SO4, 0.3 g/L citric acid, 0.1 g/L NaCl, 2 g/L MgSO4×7 H2O and 0.015 g/L CaCl2×6 H2O, supplemented with 1 ml/L trace element solution (54.4 g/L ammonium ferric citrate, 9.8 g/L MnCl2×4 H2O, 1.6 g/L […], 1 g/L CuCl2×2 H2O, 1.9 g/L MnCl2×4 H2O, 1.1 g/L Na2MoO4×2 H2O, 1.5 g/L Na2SeO3, 1.5 g/L NiSO4×6 H2O). The pH of the medium was adjusted to 7.0. Lactose was added to the medium in a concentration of 10 mM to 25 mM for synthesis of the desired oligosaccharide by the cells and for testing the cells' sensitivity to lactose.
The bacterial cells were grown at 30° C. and 80% relative humidity with constant agitation at 120 rpm. After 20 h culturing, the optical density of the pre-cultures was determined and the main cultures were inoculated to an OD600 of 0.3 in 25 ml of mineral salts medium. Lactose was added to the culture medium two hours after inoculation of the cultures to final concentrations of 10 or 25 mM. The optical densities (OD600) of the main cultures were determined 20 hours after addition of lactose.

[3] = test system: E. coli strains expressing different variants of the E. coli lactose permease LacY; format: cell-based
Protocol: Bacterial cell pellets from these cultures were used to inoculate 100 ml minimal medium in shaking flasks. These cultures were incubated for 16 hours at 37° C. in a shaker. The bacterial cells were then sedimented by centrifugation and the resulting pellets were washed twice with fresh cold (4° C.) culture medium and finally resuspended in cold medium. The optical density (OD600) of the cell suspension was set to 5 with cold medium, and the cell suspension is were stored on ice until use for the internalization assay.
Three minutes prior to the transport assay, the bacterial cells were placed in a 37° C. thermo block. […] […] The bacterial cells on the filter were washed twice with 100 mM LiCl and the filter was used subsequently to quantify remaining radioactivity in a Tricarb 2800 scintillation counter (Perkin Elmar, Waltham, MA). To this end, the filters were transferred into scintillation tubes and overlaid with 6 ml Rotiszint eco plus (Roth, Karlsruhe, DE).
In a second set of experiments, the transport assays were started by addition of a mixture of ^14C-labelled lactose and non-radiolabeled lactose to a final concentration of 5 mM lactose and 550,000 dpm. The bacterial cells were collected by filtration after 60 seconds incubation, and washed twice with 3 ml medium containing 5 mM unlabelled lactose.

Chain of E. coli wild-type LacY (P02920 whole entry): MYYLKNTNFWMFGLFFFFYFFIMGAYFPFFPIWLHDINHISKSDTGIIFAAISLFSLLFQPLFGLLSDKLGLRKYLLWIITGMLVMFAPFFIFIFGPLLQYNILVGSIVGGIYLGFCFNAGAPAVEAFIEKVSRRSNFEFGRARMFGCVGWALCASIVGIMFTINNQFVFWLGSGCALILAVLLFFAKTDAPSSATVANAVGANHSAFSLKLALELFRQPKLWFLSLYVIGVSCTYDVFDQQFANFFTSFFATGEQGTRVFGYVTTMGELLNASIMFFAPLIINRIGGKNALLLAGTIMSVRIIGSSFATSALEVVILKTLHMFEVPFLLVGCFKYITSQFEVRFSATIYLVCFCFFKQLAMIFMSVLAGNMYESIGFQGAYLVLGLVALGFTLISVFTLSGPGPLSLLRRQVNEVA

OC[C@H]1O[C@@H](O[C@@H]2[C@@H](CO)OC(O)(CO)[C@H]2O)[C@H](O)[C@@H](O)[C@H]1O (mixture of isomers) [lactulose]
Km (E. coli wild-type LacY): 240 µM

CS[C@@H]1O[C@H](CO)[C@H](O)[C@H](O)[C@H]1O [TMG, methyl-1-thio-β,D-galactopyranoside, reference compound]
Km (E. coli wild-type LacY): 540 µM

O=C[C@H](O)[C@@H](O)[C@H](O[C@@H]1O[C@H](CO)[C@H](O)[C@H](O)[C@H]1O)[C@H](O)CO [lactose, β-D-galactopyranosyl-(1→4)-D-glucose]
Km (E. coli wild-type LacY): 620 µM

OC[C@H]1O[C@H](OCC2O[C@@H](O)[C@H](O)[C@@H](O)[C@@H]2O)[C@H](O)[C@@H](O)[C@H]1O (stereo partly shown) [melibiose]
Km (E. coli wild-type LacY): 240 µM

B1: LacY(L293R): E. coli LacY variant with leucine at position 293 substituted with arginine (protein, UniProt P02920 1-417, looked up, variant L293R)
Lactose permease: MYYLKNTNFWMFGLFFFFYFFIMGAYFPFFPIWLHDINHISKSDTGIIFAAISLFSLLFQPLFGLLSDKLGLRKYLLWIITGMLVMFAPFFIFIFGPLLQYNILVGSIVGGIYLGFCFNAGAPAVEAFIEKVSRRSNFEFGRARMFGCVGWALCASIVGIMFTINNQFVFWLGSGCALILAVLLFFAKTDAPSSATVANAVGANHSAFSLKLALELFRQPKLWFLSLYVIGVSCTYDVFDQQFANFFTSFFATGEQGTRVFGYVTTMGELLNASIMFFAPLIINRIGGKNALRLAGTIMSVRIIGSSFATSALEVVILKTLHMFEVPFLLVGCFKYITSQFEVRFSATIYLVCFCFFKQLAMIFMSVLAGNMYESIGFQGAYLVLGLVALGFTLISVFTLSGPGPLSLLRRQVNEVA
growth kinetics throughout the fermentation ([1]; LNT fermentation, FIG. 7): regular growth kinetics | optical density reached in the culture ([1]; LNT fermentation, FIG. 7, compared to strain bearing LacY): higher | setback in the OC600 and lactose-caused cell lysis ([1]; continuous lactose feed 3.2 ml/L/h, lactose level kept high): without causing any setback in the OC600 and without apparent lactose-caused cell lysis | growth ([1]; fermentation broth containing 20 mM lactose at inoculation): did not display any problems in growth | relative expression (lactose permease genes): at the same level | growth (OD600) ([2]; 10 mM lactose): not reduced | growth (OD600) ([2]; 25 mM lactose): not reduced | lactose internalization (radioactivity incorporated) ([3]; exogenous lactose 0.5 mM, 30 seconds, FIG. 5A): reduced but detectable | lactose internalization (radioactivity incorporated) ([3]; exogenous lactose 5 mM, 60 seconds, FIG. 5B): reduced but detectable

Source: patent publication US20240110213A1 (Chr. Hansen HMO GmbH, priority 2020, published 2024)
